{
  "source": "paper PMC12748787",
  "about": "(Communications Biology, 2025)",
  "binders": {"B1": {"name": "JPH2 NT S165I (domain or fragment, mouse, UniProt Q9ET78 1-440, looked up)", "chain": "MSGGRFDFDDGGAYCGGWEGGKAHGHGLCTGPKGQGEYSGSWNFGFEVAGVYTWPSGNTFEGYWSQGKRHGLGIETKGRWLYKGEWTHGFKGRYGIRQSTNSGAKYEGTWNNGLQDGYGTETYADGGTYQGQFTNGMRHGYGVRQSVPYGMAVVVRSPLRTSLSILRSEHSNGTVAPDSPAADGPMLPSPPVPRGGFALTLLATAEAARPQGLFTRGTLLGRLRRSESRTSLGSQRSRLSFLKSELSSGASDAASTGSLAEGAEGPDDAAAPFDADIDATTTETYMGEWKNDKRSGFGVSERSSGLRYEGEWLDNLRHGYGRTTLPDGHREEGKYRHNVLVKGTKRRVLPLKSSKVRQKVEHGVEGAQRAAAIARQKAEIAASRTSHAKAKAEAAEQAALAANQESNIARTLAKELAPDFYQPGPEYQKRRLLQEILENS"}, "B2": {"name": "JPH2 NT (mouse, wild type, as used in SEC-MALS) (domain or fragment, UniProt Q9ET78 1-440, looked up)", "chain": "B1 chain with I165S"}, "B3": {"name": "MBP-JPH2 NT S165Y (domain or fragment, mouse, UniProt Q9ET78 1-440, looked up)", "chain": "B1 chain with I165Y"}, "B4": {"name": "JPH2 NT S165L (domain or fragment, mouse, UniProt Q9ET78 1-440, looked up)", "chain": "B1 chain with I165L"}, "B5": {"name": "CaV1.2 JBM (as used in SEC and SEC-MALS) (domain or fragment)", "chain": "not shown"}, "B6": {"name": "Trx-CaV1.2 JBM (domain or fragment)", "chain": "not shown"}},
  "key": {"Trx-CaV1.2 JBM": {"molecular_target": "B6", "assay": "ITC"}, "[1]": {"molecular_target": "B5", "assay": "SEC-MALS"}, "[2]": {"molecular_target": "T1, JPH2 MORN-Helix (as used in SEC-MALS) (mouse, UniProt Q9ET78 1-440, Δ176-273)", "T1 sequence (looked up)": "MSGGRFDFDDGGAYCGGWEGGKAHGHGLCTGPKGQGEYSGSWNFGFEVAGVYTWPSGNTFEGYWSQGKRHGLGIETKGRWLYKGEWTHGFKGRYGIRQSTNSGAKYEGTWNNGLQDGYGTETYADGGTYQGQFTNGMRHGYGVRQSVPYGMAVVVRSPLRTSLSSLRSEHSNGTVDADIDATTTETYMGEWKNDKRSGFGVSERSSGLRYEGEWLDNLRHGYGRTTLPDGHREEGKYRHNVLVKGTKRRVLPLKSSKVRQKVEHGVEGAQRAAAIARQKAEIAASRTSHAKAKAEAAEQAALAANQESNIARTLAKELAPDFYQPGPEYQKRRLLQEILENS", "assay": "SEC-MALS"}, "MBP-JPH2 MORN-Helix": {"molecular_target": "T2, MBP-JPH2 MORN-Helix (mouse, UniProt Q9ET78 1-440, Δ176-273)", "T2 sequence (looked up)": "T1 sequence (looked up)", "assay": "ITC"}, "MBP-Mus_JPH1 NT WT": {"molecular_target": "T3, MBP-Mus_JPH1 NT WT (mouse, UniProt Q9ET80 1-436)", "T3 sequence (looked up)": "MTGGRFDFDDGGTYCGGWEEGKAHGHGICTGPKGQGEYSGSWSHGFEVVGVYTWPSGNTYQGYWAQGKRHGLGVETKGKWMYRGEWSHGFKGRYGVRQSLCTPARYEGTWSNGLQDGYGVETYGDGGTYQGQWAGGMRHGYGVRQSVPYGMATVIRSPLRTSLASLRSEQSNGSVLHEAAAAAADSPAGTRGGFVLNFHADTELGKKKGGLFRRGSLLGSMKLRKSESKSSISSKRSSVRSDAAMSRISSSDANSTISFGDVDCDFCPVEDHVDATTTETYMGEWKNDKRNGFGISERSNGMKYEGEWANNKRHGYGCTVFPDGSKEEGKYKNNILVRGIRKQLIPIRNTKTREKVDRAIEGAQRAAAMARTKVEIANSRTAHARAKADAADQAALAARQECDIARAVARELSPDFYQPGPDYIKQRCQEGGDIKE", "assay": "ITC"}, "MBP-Mus_JPH3 NT WT": {"molecular_target": "T4, MBP-Mus_JPH3 NT WT (mouse, UniProt Q9ET77 1-446)", "T4 sequence (looked up)": "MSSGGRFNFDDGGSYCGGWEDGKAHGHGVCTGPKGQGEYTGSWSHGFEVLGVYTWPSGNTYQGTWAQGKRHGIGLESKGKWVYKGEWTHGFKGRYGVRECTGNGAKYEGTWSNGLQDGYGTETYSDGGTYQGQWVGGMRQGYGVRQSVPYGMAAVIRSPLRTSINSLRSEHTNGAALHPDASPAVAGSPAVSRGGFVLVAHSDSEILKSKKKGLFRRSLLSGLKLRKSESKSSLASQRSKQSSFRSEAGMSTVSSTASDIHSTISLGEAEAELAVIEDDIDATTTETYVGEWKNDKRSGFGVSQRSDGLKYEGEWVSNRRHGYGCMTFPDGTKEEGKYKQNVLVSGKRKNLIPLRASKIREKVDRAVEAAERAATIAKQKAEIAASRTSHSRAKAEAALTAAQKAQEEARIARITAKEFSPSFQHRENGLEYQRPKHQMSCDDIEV", "assay": "ITC"}, "[3]": {"molecular_target": "T5, MBP-JPH2 NT (mouse, wild type) (mouse, UniProt Q9ET78 1-440)", "T5 sequence (looked up)": "B1 chain with I165S", "assay": "ITC"}},
  "note": "Where a chain is given by its changes, count along the chain named. Numbers in names are those of the source.",
  "data": [
    {"binder": "B1", "values": [
      {"measurement": "fold decrease in affinity against the wild type", "setting": "Trx-CaV1.2 JBM", "result": 2, "unit": "fold"}
    ]},
    {"binder": "B2", "values": [
      {"measurement": "stoichiometry N", "setting": "[1]", "result": 1}
    ]},
    {"binder": "B3", "values": [
      {"measurement": "fold weakening of the binding against the wild type", "setting": "Trx-CaV1.2 JBM", "result": "~3", "unit": "fold"}
    ]},
    {"binder": "B4", "values": [
      {"measurement": "fold decrease in affinity against the wild type", "setting": "Trx-CaV1.2 JBM", "result": 2, "unit": "fold"}
    ]},
    {"binder": "B5", "values": [
      {"measurement": "binding result", "setting": "[2]", "result": "binds"}
    ]},
    {"binder": "B6", "values": [
      {"measurement": "binding result", "setting": "MBP-JPH2 MORN-Helix", "result": "binds"},
      {"measurement": "Kd", "setting": "MBP-Mus_JPH1 NT WT", "result": "5.54 ± 0.71", "unit": "µM"},
      {"measurement": "Kd", "setting": "MBP-Mus_JPH3 NT WT", "result": "5.82 ± 0.36", "unit": "µM"},
      {"measurement": "Kd", "setting": "[3]", "result": "~6.04", "unit": "µM"}
    ]}
  ]
}
